Measured values taken from patent US20050192282A1, “Chemokine inhibiting piperazine derivatives and their use to treat multiple myeloma” (Schering Aktiengesellschaft, priority 2004, published 2005).
Entries after “also recorded” stand apart in the source; their conditions may differ.

B1: MIP-1α: human CC chemokine, ligand for CCR1 and CCR5; recombinant form used as stimulus (protein, UniProt P10147 24-92, looked up)
C-C motif chemokine 3: SLAADTPTACCFSYTSRQIPQNFIADYFETSSQCSKPGVIFLTKRSRQVCADPSEEWVQKYVSDLELSA
B2: MIP-1β: human chemokine binding CCR1 with low affinity (protein, UniProt P13236 24-92, looked up)
C-C motif chemokine 4: APMGSDPPTACCFSYTARKLPRNFVVDYYETSSLCSQPAVVFQTKRSKQVCADPSESWVQEYVYDLELN

What was measured:
Human CCR1 = biological target: T1, Human CCR1 (Homo sapiens, UniProt P32246); conditions: cited from earlier work
T1 sequence (P32246 1-355): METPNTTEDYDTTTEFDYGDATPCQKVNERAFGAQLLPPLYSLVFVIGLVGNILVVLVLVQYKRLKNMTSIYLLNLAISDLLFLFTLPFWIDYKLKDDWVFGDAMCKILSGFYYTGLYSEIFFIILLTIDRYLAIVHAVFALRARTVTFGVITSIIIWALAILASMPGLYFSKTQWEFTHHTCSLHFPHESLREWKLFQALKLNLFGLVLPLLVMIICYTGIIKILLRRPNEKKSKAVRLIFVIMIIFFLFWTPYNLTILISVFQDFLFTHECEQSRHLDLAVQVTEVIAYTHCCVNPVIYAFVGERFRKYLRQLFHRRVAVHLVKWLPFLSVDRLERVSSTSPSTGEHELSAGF

[1] = test system: β1 integrin mRNA expression in MM.1S human Myeloma cells; assay: RT-PCR analysis of β1 integrin mRNA expression in MM.1S myeloma cells cocultured with ST2 stromal cells; type: cell-based; conditions: MM.1S cocultured with ST2; treated with 1 ng/ml of rhMIP-1a, 12 hours

| Molecule | ability to signal through human CCR1 (Human CCR1) | β1 integrin mRNA expression levels [1] |
| --- | --- | --- |
| MCP-1: human chemokine binding CCR1 with low affinity | neither ligand is able to signal | – |
| B1 | – | significantly increased; also recorded: significantly enhanced |
| B2 | neither ligand is able to signal | – |
